The source of these data is a protein production outcome set (Wang et al. 2014).

The nature of the series: label from the status in PepcDB records.

Turning to “MEQKSKFSSATVFSGKLLIASLFILSGILLFARNMGWITAELFNIIVSWHSLLIILGIYSMIRRHFVGGIILVLVGVYFLLGGLSWLPENSQAMVWPLALIIAGVLFLFKSRHRGPWDDKQRMFRDHREWMKHGHHGHAGMNFTDNQQQCESEDGFLRSDNTFGAARHVVLDELFKGAVVRTSCGGTTIDLRHTHIAPGETYIDIDCSWGGVEIYVPSDWKVVFKCNTFFGGCDDKRWQNGNINKESVLVIRGRLSFGGLEVKD”, the protein production entry is recorded as “failed”.
The same measure for “MEQQEEKRKIKAYQRKSKRSKSGSSSIPLDLVSEILLRLPEKSVARFRCVSKPWSSITTEPYFINLLTTRSPRLLLCFKANEKFFVSSIPQHRQTFETWNKSHSYSQLIDRYHMEFSEEMNYFPPTESVNGLICFQESARLIVWNPSTRQLLILPKPNGNSNDLTIFLGYDPVEGKHKVMCMEFSATYDTCRVLTLGSAQKLWRTVKTHNKHRSDYYDSGRCINGVVYHIAYVKDMCVWVLMSFDVRSEIFDMIELPSSDVHKDVLIDYNGRLACVGREIIEKNGIRLWILEKHNKWSSKDFLAPLVHIDKSLSTNKFLLKGFTHAGEIIYVESMFHKSAKIFFYDPVRNTSRRFELKGFTDDEFVLSNEHGYTLHVFPNHVESQISFT”: “failed”; for “MEQSFFRELLHYQRPKDNPFRLVFAGLVMFSILFLGYINHQLLISSFGSLGIFTFLYYQPLPLKQLMTRLSVVGSYLFLGNLLGMLSTHIAWLIPIVVALVGFGGRFFFEVYDISKPGAFFGVMVTAMGASTSIPLAKIPFMSGCMLLGIGFSILFALVLHFTEKEISVPLAKRSLRERIYQHPEAPLDSIYYSFVLFFAVYISESLHLQNPYWLVVSCASILQGDNLRAIKQRNIQRIFGTTIGLVISAFLLNLALTTFESIVVITILFVTVEYFIRRNYGLAQFFTTPMALMLSLLVRQQYVITLIQFRFLGIVLGSLLGLSSSVAIHRCSNVL”: “failed”.
Consider “MEQTTIDGIALTLAGPVQLPLKWVGQDELLQQLLAAWMVIDDRDIPFSPRLIGKPGVGKTTLAYAAARRLGRPVYLFQATMDTRPEDLIITPVIGPDGKIQYAASSLVSAMVKGGVLILDEGNRMSEKAWASLAPLLDDRRYVESIITGLRVPAHRDFRIVVTMNEDASTFEVPEYIHSRLQPQIFIDFPEADEELMILKENLPFAPTRILKYVVDFLQRAHAADELYSVRDGINIARYALKMMAATERDAAELLPLAVERVLGDEALRYLALEHHHHHH”, for which the protein production result is reported as “failed”.
On to “MERELGPWRLTFRVRGWLSDEVFGEISRYARYLGRDRGYGLFRIDPERLRGNGLTLWDAIASLEDLGVAVEEDLEALKRAAEEALRVVLELRGGWVYISSRVMLKPILEEEGLSLPYDREARAYRAPPIMYPRLREAFERRGLKVEDRVFPPSSRSLPRPVRFTGELRDYQEEALEAWRKAGGRGVIVLPTGAGKTVVAIAAVAWAGVWSLIVVYTRDHVRQWIDAFRRFTDAHSLVGAYYGEEKRLAPITVTTYQTAYRHIDRLAPLFPFLVFDEAHHIPADKFKRIASASPAPYRMGLSATIEREDGRHEEVYSLVGGVVYSSSPGELTRKGYLAPFVIRRVKVELEEEEKRLYEDLKRKYRILARGRSFEKILEDARRGDPTAIEAIRVNTRMKEIVQLSESKIRAVEKLVREELSRGSKVIVFTQYRRQAEEIARRTGALLLHGGLERRVREATLAKFRALKAGALVVTTVGDEGLDIPDANVGILVSGTGSRRQFIQRLGRLLRPGEGKRAVLYEVIARGTGEELQSRRRRGRG”, for which the protein production result was “failed”.
Regarding “MERGRSDMEMINNMANCLILLSKAHQNDTKSRVFACKTCNKEFPSFQALGGHRASHRRSAALEGHAPPSPKRVKPVKHECPICGAEFAVGQALGGHMRKHRGGSGGGGGRSLAPATAPVTMKKSGGGNGKRVLCLDLNLTPLENEDLKLELGRFIF”, the protein production result is “failed”.
With “MERIRWLYGFLACILIAILLAPLQIMAQGEFRTSDQPLVYYIPVEQEVERGLEAFLQRSLDSAVEEGADHIVLEINTPGGRVDAAGNMARALRETDIPITAYVIDQALSAGAYIALNADEIVMAPGSTMGSAAVIDSAGNAADEKAQSYWLAEMRNAAEYNDRDPKYALAMADRSIEIPELDISNEELLTLTASQALEVNYAEAIASNRAELLEHLQIDNAFEQEMEVSFAEKLARFVTNPLIIPILLSIGSLGLVLELYSPGFGVPGIMGISALLLFFFGHLIAGFAGYEAMILFIAGFLLILIEVFMPGFGLFGILGIAGMIGGMLLASFSTAWMLVSLGISAVVTTVVAIITFRYFGSRGPWKKMILTESTSSEKGYITNETRQELVGLIGQSLTPLRPSGSGLFGEERLDVVSEGGYIEQGRKIKVVSTSGSRIVVRETDELEHHHHHH”, the protein production result is “failed”.
For the sequence “MERKINRREKEKEYEGKHNSLEDTDQGKNCKSTLMTLNVGGYLYITQKQTLTKYPDTFLEGIVNGKILCPFDADGHYFIDRDGLLFRHVLNFLRNGELLLPEGFRENQLLAQEAEFFQLKGLAEEVKSRWEKEQLTPRETTFLEITDNHDRSQGLRIFCNAPDFISKIKSRIVLVSKSRLDGFPEEFSISSNIIRFKYFIKSENGTRLVLKEDNTFVCTLETLKFEAIMMALKCGFRLLTSLDCSKGSIVHSDALHFIK”, the protein production entry was “not failed”.
Under “MERKISDEECPVRKSMQIFAGKWTLLIIFQINRRIIRYGELKRAIPGISEKMLIDELKFLCGKGLIKKKQYPEVPPRVEYSLTPLGEKVLPIIDEIAKFGMENL” stands “not failed”.
Under “MERKRYSKRYCKYTEAKISFIDYKDLDMLKHTLSERYKIMPRRLTGNSKKWQERVEVAIKRARHMALIPYIVDRKKVVDSPFKQH” stands “failed”; under “MESAATAVVPPAAAATTATATDDNLQSSDSSSPADAVNRLIHAFSQRQQHLLDKTVPHVLYRWIACLCVVLIYIVRVYFVEGFYIITYAIGIYLLNLIIAFLSPQEDPEASLTSGGSLPTRRSDEYRPFVRRLPEFKFWLSIIRAFIIGFMMTFFEVFDVPVFWPILLFYWVMLFFLTMRKQIQHMIKYRYVPFSFGKKVCVSFSFLPSQN”, “failed”.
Under “MESGIFGEGGSLPPLPVLLRGLQDLGLLGKLDIARRATLTGISLCFSVFLQHIGIMWIQVRTMDGKETHTVNSLSRLTKVQELRKKIEELFHVEPQLQRLFYRGKQMEDGHTLFDYDVRLNDTIQLLVRQSLALPLSTKERDSELSDSDSGYGVGHSESDKSSTHGEGTADGDDKTVWEDTDLGLYKVNEYVDVRDNIFGAWFEAQVVQVQKKALSEEEPCSSSAIMAPEDDIMYHIKYDDYPEHGVDIVKAKNVRARARTVIPWEDLEVGQVVMANYNVDYPRKRGFWYDVEICRKRQTRTARELYGNVMLLNDSQLNNCRIIFVDEVLKIELPNERSPLIGSPSRRKSGPSCQYCKDDENKPCRKCACHICGGREAPEKQVLCDECDMAFHLYCLQPPLTCVPPEPEWYCPSCRTDSSEVVQAGEKLKKSKKKAKMASATSSSRRDWGKGMACVGRTTECTIVPANHFGPIPGVPVGTMWRFRVQVSESGVHRPHVAGIHGRSNDGAYSLVLAGGYEDDVDNGNFFTYTGSGGRDLSGNKRTAGQSSDQKLTNNNRALALNCHSPINEKGAEAEDWRQGKPVRVVRNMKGGKHSKYAPAEGNRYDGIYKVVKYWPEKGKSGFIVWRYLLRRDDTEPEPWTREGKDRTRQLGLTMQYPEGYLEALANKEKNRKRPAKALEQGPSSSKIGKSKRKSTGPATTSPRVSKKSKLEPYTLPLQQANLIKEDKGNAKLWDDVLSSLQDGPYQIFLSKVKEAFQCICCQELVFRPVTTVCQHNVCKDCLDRSFRAQVFSCPACRYDLDHSSPTRVNQPLQTILNQLFPGYGSGR” stands “failed”; under “MESGNVVNTQPELSGIIDGSKSYMYEQLWKLCAGPLCDIPKLGEKVYYFPQGHIELVEASTREELNELQPICDFPSKLQCRVIAIQLKVENNSDETYAEITLMPDTTQVVIPTQNQNQFRPLVNSFTKVLTASDTSVHGGFSVPKKHAIECLPPLDMSQPLPTQEILAIDLHGNQWRFRHIYRGTAQRHLLTIGWNAFTTSKKLVEGDVIVFVRGETGELRVGIRRAGHQQGNIPSSIVSIESMRHGIIASAKHAFDNQCMFIVVYKPRSSQFIVSYDKFLDVVNNKFNVGSRFTMRFEGDDFSERRSFGTIIGVSDFSPHWKCSEWRSLEVQWDEFASFPRPNQVSPWDIEHLTPWSNVSRSSFLKNKRSREVNEIGSSSSHLLPPTLTQGQEIGQQSMATPMNISLRYRDITEDAMTPSRLLMSYPVQPMAKLNYNNVVTPIEENITTNAVASFRLFGVSLATPSVIKDPVEQIGLEISRLTQEKKFGQSQILRSPTEIQSKQFSSTRTCTKVQMQGVTIGRAVDLSVLNGYDQLILELEKLFDLKGQLQARNQWEIAFTNNEEDKMLVGEDPWPEFCNMVKKIFIYSKEEVKNLKSRKSLSS”, “failed”; under “MESLPVLGVFFMVKTANVAVMPLFPRSQYRIIGQIGQGQFGRVYCAIHRTTGKMYALKDLEHRVFPTNKFLRELSYLLTLRHPNIVACHGLEYHPGGRYLVMDYCEGGTLRDIIDGDGDLCLAGKIDLLRQILLGLAQAHQHDIVHCDLKPENILLIPRAEGWQVKVSDFGIARLTAKTGNPNFSKGYTGSPAYMAPERFYGKFSVASDIYAVGILLYELIVGDRPFSGFPKALQAAHLNVRLTLPPEFPPLLAPIVQRALEKLPQRRFPNATAMASDLATVQKQILEQDPPRGNGYLYHHLAPAPLAFTATVKHSTPLLFPISHLTGAGLWLYLGNGAELYLWEYGDGNVEHHPLPRWALGLPGTIANLEVNQDQISLLIQGGEPGEWQFYQWRETLLGALSLPKPRINLRAERLLANLSPGGKTLAVVVGDRDSEKGHFQLWRTDHSLPVAAAVVIRWPDQLLTLDQNHGLLVQSQSTASYCHTIFFLFNRRGSLFPAFRLSFLVFQLVVNRYSRNHLFGLADNAPYTGILIRLQPLKVNRIALTIQPQFIEPFPWGYLLADRHGEVALLDYEGFLFGNFSLGETITAIAPMGRYLCLFATWQGNGGTLRLLDLGPQVENIIRQRQEKR”, “failed”.
With “MESPGGSAPLLGLELCAAARDSAAMAGPGAPCDPCAPAAVWKRHIVRQLRHRDRTQKALFLELVPAYNHLLEKAELLAKFSEKLKSEPKDAISTRHEDWREEVSGTGPDQVSSPASLRVKWQQEKKGLQLVCGEMAYQVVKKSAALDTLQSQLEERQDRLEALQACVVQLQEARAQQSRQLEERQAENAAQREAYETLLQQAVHQEAALRRLQEEARDLLEQLVQRKARAAAERNLRNERRERANQALVSQELKKAAKRTVSISEIPNTLEDGTKEETVALAPAALPEFSESETCEKWKRPFRSASATSLTLSRCVDVVKGLLDFKKRRGHSVGGAPEQRYQSIPVCVSAQIPSQAQDVLDAHLSEVNAVCFGPNSSLLATGGADRLIHLWNVVGGRLEANQTLEGAGGSITSVDFDPSGSQVLAATYNQAAQLWKVGETQSKETLSGHKDKVTAAKFKLTRHQAVTGSRDRTVKEWDLGRAYCSRTINVLSYCNDVVCGDHIIISGHNDQKIRFWDSRGPHCIQVIPVQGRVTSLHLSYDQLHLLSCSRDNTLKVIDLRISNIRQVFRADGFKCSSDWTKAVFSPDRSYALAGSSNGDLYIWDVNTGKLETSLQGPHCTAVNAVAWCFSGNHVVSVDQGRKVVLWH”, the protein production entry is on record as “failed”.
The same measure for “MESSAINIAIVVVYLLAMLAFGWWGKSRTKNNSDFLVAGRRLGPFLYTGTMAAVVLGGASTVGGVGLGYKFGISGMWLVVAIGSGVLLLSLLFAGTIQKLKIYTVSQMLTLRYGSTATQTSGIVMLAYTLMLCATSTGAYATIFVVLFGWERWLAIAIGGAIVLVYSTIGGMWSITLADQVQFVIKTVGIFFLMLPFALNAAGGLDGIRARVDESFFDIGGIGLQTIITYFVVYTLGLLIGQDIWQRVFTAKTPTVARWGGATAGVYCILYGFAGALIGMAASVALSGVEIAAKDDVYAEVATRLLPIGIGGLVLAAAVAAMMSTASGALIAAATVARADVMPFVASWFGKKVDTSDSDNPEHDVKANRYWVLGLGIVAIIIAISTKDVVAALTIAYDILVGGLLVAIIGGLVWKRGTGIAAAWSMAAGSVITLGTMIILEINAEVPLDGIYANEPIYFGLIASAVVYVVVSLLSKPTDPAVMKAWTDRVAGTRVAEEELTTPAS”: “failed”.
